From patent US20250136694A1 (HARBOUR BIOMED SHANGHAI, published 2025)
Where a chain is given by its changes, count along the chain named.

T1: mouse B7-H4 on the cell surface (mouse, UniProt Q7TSP5 25-257)
T1 construct: whole, on cells; also called m B7-H4; CHO-K1/mB7-H4
T1 sequence (looked up): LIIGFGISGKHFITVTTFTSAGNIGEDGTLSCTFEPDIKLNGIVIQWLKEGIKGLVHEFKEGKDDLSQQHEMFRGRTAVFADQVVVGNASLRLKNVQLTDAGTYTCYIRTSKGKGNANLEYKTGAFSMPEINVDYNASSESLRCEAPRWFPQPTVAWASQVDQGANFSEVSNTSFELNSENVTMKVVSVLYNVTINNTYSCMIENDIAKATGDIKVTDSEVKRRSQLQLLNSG

T2: human B7-H4 on the cell surface (human, UniProt Q7Z7D3 25-282)
T2 construct: whole, on cells; also called hu B7-H4; CHO-K1/huB7-H4
T2 sequence (looked up): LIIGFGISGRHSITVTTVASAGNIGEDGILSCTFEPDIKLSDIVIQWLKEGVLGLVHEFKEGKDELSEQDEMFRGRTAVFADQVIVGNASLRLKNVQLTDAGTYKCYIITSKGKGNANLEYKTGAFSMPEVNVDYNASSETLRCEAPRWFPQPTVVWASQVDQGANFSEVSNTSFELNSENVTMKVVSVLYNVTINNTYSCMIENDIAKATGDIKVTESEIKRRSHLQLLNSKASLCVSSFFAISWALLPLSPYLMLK

T3: cynomolgus monkey B7-H4 on the cell surface (cynomolgus monkey, UniProt A0A2K5U6P5 25-282)
T3 construct: whole, on cells; also called cyno B7-H4; CHO-K1/cynoB7-H4
T3 sequence: T2 sequence (looked up) with L53I, F242L, S252A

T4: human B7-H4 (protein in solution, BLI) (human, UniProt Q7Z7D3 25-258, limits assumed)
T4 sequence (looked up): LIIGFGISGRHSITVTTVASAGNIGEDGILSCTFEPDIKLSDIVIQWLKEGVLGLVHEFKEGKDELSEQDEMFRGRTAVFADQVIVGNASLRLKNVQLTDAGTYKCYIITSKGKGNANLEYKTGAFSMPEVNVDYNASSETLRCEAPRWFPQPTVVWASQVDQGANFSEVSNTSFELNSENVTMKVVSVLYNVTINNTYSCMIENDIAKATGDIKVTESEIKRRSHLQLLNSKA

B1: PR006391 (bispecific antibody, human IgG1, lambda)
light: QAVVTQEPSLTVSPGGTVTLTCRSSTGAVTTSNYANWVQQKPGQAPRGLIGGTNKRAPWTPARFSGSLLGDKAALTLLGAQPEDEAEYFCALWYSNLWVFGGGTKLTVLGQPKAAPSVTLFPPSSEELQANKATLVCLISDFYPGAVTVAWKADSSPVKAGVETTTPSKQSNNKYAASSYLSLTPEQWKSHRSYSCQVTHEGSTVEKTVAPTECS
heavy: EVQLVESGGGLVQPGGSLKLSCAASGFTFSTYAMNWVRQASGKGLEWVGRIRSKYNNYATYYADSVKDRFTISRDDSKNTAYLQMNSLKTEDTAVYYCTRHGNFGNSYVSWFAYWGQGTLVTVSSASTKGPSVFPLAPSSKSTSGGTAALGCLVKDYFPEPVTVSWNSGALTSGVHTFPAVLQSSGLYSLSSVVTVPSSSLGTQTYICNVNHKPSNTKVDKKVEPKSCDKTHTCPPCPAPEAAGAPSVFLFPPKPKDTLMISRTPEVTCVVVDVSHEDPEVKFNWYVDGVEVHNAKTKPREEQYNSTYRVVSVLTVLHQDWLNGKEYKCKVSNKALPAPIEKTISKAKGQPREPQVYTLPPCREEMTKNQVSLWCLVKGFYPSDIAVEWESNGQPENNYKTTPPVLDSDGSFFLYSKLTVDKSRWQQGNVFSCSVMHEALHNHYTQKSLSLSPGK
chain: EVQLVESGGGLVQPGGSLRLSCAASGFAFSNYWMHWARQVPGKGRVWISRISGDSRSTSYADSVKGRFTISRDNAKNMVYLQMNNLRAEDTAVYYCARDRFGDDYYYGMNVWGQGTTVTVSSGGGGSGGGGSGGGGSEVQLVESGGGLVQPGGSLRLSCAASGFAFSNYWMHWARQVPGKGRVWISRISGDSRSTSYADSVKGRFTISRDNAKNMVYLQMNNLRAEDTAVYYCARDRFGDDYYYGMNVWGQGTTVTVSSASEPKSSDKTHTCPPCPAPEAAGAPSVFLFPPKPKDTLMISRTPEVTCVVVDVSHEDPEVKFNWYVDGVEVHNAKTKPREEQYNSTYRVVSVLTVLHQDWLNGKEYKCKVSNKALPAPIEKTISKAKGQPREPQVCTLPPSREEMTKNQVSLSCAVKGFYPSDIAVEWESNGQPENNYKTTPPVLDSDGSFFLVSKLTVDKSRWQQGNVFSCSVMHEALHNHYTQKSLSLSPGK
notes: also called B7-H4xCD3 bispecific antibody; PR003886 Fab + bivalent PR007440
B2: PR005885 (bispecific antibody, human IgG1, lambda)
light: B1 light
heavy: B1 heavy
scFv: EIVMTQSPASLSVSPGERATLSCRASQSVSSNLAWYQQKPGQAPRLLIYGASTRATGIPARVSGGGSGTEFTLTISSLQSEDFAVYYCQQYKNWPFTFGPGTKLEIKGGGGSGGGGSGGGGSGGGGSQVQLVQSGAEVKKPGSSMRVSCKASEDTFSSYAISWVRQAPGQGLEWMGGTAPIFGTTNYAQKFQGRVTITADKSTSTAYMELSSLRSEDTAVYYCARGGPYFDYWGQGTLVTVSSASEPKSSDKTHTCPPCPAPEAAGAPSVFLFPPKPKDTLMISRTPEVTCVVVDVSHEDPEVKFNWYVDGVEVHNAKTKPREEQYNSTYRVVSVLTVLHQDWLNGKEYKCKVSNKALPAPIEKTISKAKGQPREPQVCTLPPSREEMTKNQVSLSCAVKGFYPSDIAVEWESNGQPENNYKTTPPVLDSDGSFFLVSKLTVDKSRWQQGNVFSCSVMHEALHNHYTQKSLSLSPGK
notes: Chain-3 is the VL-linker-VH scFv of anti-B7-H4 antibody PR003366 fused to hinge-CH2-CH3 (hole); also called B7-H4xCD3 bispecific antibody; 1+1 Fab-Fc-scFv

Legend:
[1] = biological target: T1, mouse B7-H4 on the cell surface; assay: FACS, CHO-K1/m B7-H4 cells
[2] = biological target: T2, human B7-H4 on the cell surface; assay: FACS, MDA-MB-468 cells
Method: (§1) Antibody binding experiments at the cellular level were performed using tumor cells endogenously expressing B7-H4 or primary T cells expressing CD3. MDA-MB-468 cells or human T cells were resuspended in PBS containing 2% BSA. The cell density was adjusted to 1×10⁶ cells/mL. The cells were seeded in a 96-well V-bottom plate (Corning, #3894) at 100 μL/well, followed by the addition of test antibodies 3-fold serially diluted at a concentration that was 2 times the final concentration, each at 100 μL/well. The cells were incubated away from light at 4° C. for 2 h. Then, the cells in each well were rinsed twice with 100 μL of pre-cooled PBS containing 2% BSA and centrifuged at 500 g at 4° C. for 5 min, and then the supernatant was discarded. […] The cells in each well were rinsed twice with 100 μL of pre-cooled PBS containing 2% BSA and centrifuged at 500 g at 4° C. for 5 min, and then the supernatant was discarded. Finally, the cells in each well were resuspended with 200 μL of pre-cooled PBS containing 2% BSA, and the fluorescence signal values were read using an ACEA Novocyte3000 flow cytometer.
The results are shown in Tables 6-1, 6-2, and 6-3 and FIGS. 5A-5F.

[3] = biological target: T2, human B7-H4 on the cell surface; assay: FACS, MDA-MB-468 cells; remark: listed apart in the source
Method: as §1

[4] = biological target: T2, human B7-H4 on the cell surface; assay: FACS, CHO-K1/hu B7-H4 cells
Method: (§2) This example is intended to investigate the in vitro binding activity of the CD3 bispecific antibodies of B7-H4 for human, cynomolgus monkey, and mouse B7-H4. Antibody binding experiments at the cellular level were conducted using a CHO-K1 cell strain overexpressing human B7-H4 (CHO-K1/huB7-H4, Harbour BioMed), a CHO-K1 cell strain overexpressing cynomolgus monkey B7-H4 (CHO-K1/cynoB7-H4, Harbour BioMed), and a CHO-K1 cell strain overexpressing mouse B7-H4 (CHO-K1/mB7-H4, Harbour BioMed). Briefly, cells were digested and resuspended in PBS containing 2% FBS, and the cell density was adjusted to 1×10⁶ cells/mL. The cells were seeded in a 96-well V-bottom plate (Corning, Cat #3894) at 100 μL/well, followed by the addition of test antibodies 3-fold serially diluted at a concentration that was 2 times the final concentration, each at 100 μL/well. The cells were incubated away from light at 4° C. for 2 h. Then, the cells in each well were rinsed twice with 100 μL of pre-cooled PBS and centrifuged at 500 g at 4° C. for 5 min, and then the supernatant was discarded. […] The cells in each well were then rinsed twice with 100 μL of pre-cooled PBS and centrifuged at 500 g at 4° C. for 5 min, and then the supernatant was discarded. Finally, the cells in each well were resuspended in 200 μL of pre-cooled PBS, and the fluorescence signal values were read using ACEA Novocyte3000.

[5] = biological target: T3, cynomolgus monkey B7-H4 on the cell …; assay: FACS, CHO-K1/cyno B7-H4 cells
Method: as §2

[6] = biological target: T4, human B7-H4 (protein in solution, BLI); assay: BLI (Octet), antibody captured on AHC sensor, antigen in solution
Method: The binding kinetics between the antigen and the antibody was analyzed by the biolayer interferometry (BLI) technique using an Octet Red 96e molecular interaction analyzer (Fortebio).
When the affinity of the antigen for the antibody was determined, the rotation speed of the sensor was set at 1000 rpm/min. […] Finally, the AHC sensor was immersed in a 10 mM glycine-hydrochloric acid solution at pH 1.5 for regeneration to elute the proteins bound to the sensor.
When data analysis was performed using Octet Data Analysis software (Fortebio, version 11.0), 0 nM was taken as a reference well, and reference subtraction was performed; the “1:1 Global fitting” method was selected to fit the data, and the kinetics parameters of the binding of antigens to antigen-binding proteins were calculated, with kₒₙ(1/Ms) values, kdis(1/s) values, and KD(M) values obtained (see Table 3 and FIG. 2).

[7] = biological target: T1, mouse B7-H4 on the cell surface; assay: FACS, CHO-K1/m B7-H4 cells; remark: listed apart in the source
Method: as §2

Row | Binder | binding result [1] | EC50 [2] [nM] | EC50 [3] [nM] | EC50 [4] [nM] | EC50 [5] [nM] | Kd [6] [nM] | koff [6] [s⁻¹] | kon [6] [M⁻¹ s⁻¹] | EC50 [7] [nM]
1 | B1 | no binding | 19.1 | 15.8 | 3.54 | 3.79 | 3.75 | 0.000339 | 90400 | 
2 | B2 |  |  | 92.6 | 4.79 | 5.92 |  |  |  | 37
